Literature values as cited in PMC7671103.
pKd: −log10 of the molar value. “And” between values parts separate entries of the source, which are not always exact repeats. Equal entries are not always repeated.

Biological target: CoV main protease (Mpro) (SARS-CoV) (UniProt P0C6X7)

CoV main protease (Mpro) (from UniProt P0C6X7)
pKd: 6.10 and 5.70
